Reference: publication PMC10599522

These sequences were tested against T1, 6his-GSU1771 (Geobacter sulfurreducens (DL1 wild-type background)) (UniProt Q74CA3) (assay: EMSA). Conditions: 40 mM HEPES, 8 mM MgCl2, 50 mM KCl, 1 mM DTT, 0.05% NP-40, 0.1 mg/ml BSA, 20 ul, 30 C 30 min, pH not stated; 100 ng of each fragment; 6% native PAGE in 0.5X ….
T1 sequence: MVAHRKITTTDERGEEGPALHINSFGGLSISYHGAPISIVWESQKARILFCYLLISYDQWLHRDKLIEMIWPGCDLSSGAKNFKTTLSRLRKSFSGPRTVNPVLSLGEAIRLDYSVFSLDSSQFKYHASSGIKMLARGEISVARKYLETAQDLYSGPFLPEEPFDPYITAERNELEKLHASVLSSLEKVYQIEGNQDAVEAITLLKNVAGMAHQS

How did the binding turn out when “AGGCTTGCTCGTCTCATGTCGCGCCGCCGTGGGAAAAAGTAGTAACCAGTAGTATATCATTTCGTCACCGTGGTTTCATTGCTTGAGCTTTTTTGCATCCGAAGCGACTCCAGCCTGTGCCCTCCGGCAATAAACCGCTTTTCCCCCGCCGGTGATGGTGGTACTCTCCTCCCATTTCGCGGAGGATGGAGTGCATGGAT (double strand) [gsu3356 promoter]” was run?
The binding was “binds”.

“ACCATCTTCGCATCCCTGTGGAGGATCTCTGCTTTTCCTGCCACGACCGATAGCAGTGACTATTGTGTTGTGGTGGGTGTGTTGTGATGGTGTTGCGGTCATGTTTCTGCTTGTTTTTATTTTTAATTTTACCCATTTTGTGCTAAGAAAATCTAATGGCCCTATACCACTGTAAGCTCGGCTCCTCGGAG (double strand) [pulF promoter]” was tested. Which binding did it give?
The binding was “binds”.

“GTGGTATTCATGCACGTATTCTAATGACGGCCCGCAACCCAGGTGGAGCCGTCATCCTTTTTTTCGGATATACTGCCTGGATTCACGACTGAACCGGGACGGAAGGCAATAGCCGCACCGACGAGGATAGGATGAGCTTTCCCTTC (double strand) [gsu1704-gsu1705 intergenic region]” was tested. Which binding did it give?
Its binding is “no binding”.

How did the binding turn out when “CGCTGGATCTCCTGAAAGGGTGGGAAATCCTGAAAACAATAAGCAAATGAGAGGATGACTTACGCCAAAAGGGGGGGCTCGGGCCCCCCCTTTTTTTATGTAAATCCGATAAGTTCTATATTTGTATTGACACTCCCGTAACGATGTAGTATTCAGTAGGTAAATTAATCACAGTTAAGGTAAGGGTGTATCGCG (double strand) [gsu1771 promoter]” was run?
Its binding is “binds”.
